Data as given in patent US20240287172A1 (SCIRHOM, published 2024).

Tests used:
hiR2-FL-T519A-T7 = biological target: T1, hiR2-FL-T519A-T7 (human, UniProt Q6PJF5 1-856); experiment: FACS on MEF-DKO cells expressing the variant, 3 µg/ml antibody
T1 sequence: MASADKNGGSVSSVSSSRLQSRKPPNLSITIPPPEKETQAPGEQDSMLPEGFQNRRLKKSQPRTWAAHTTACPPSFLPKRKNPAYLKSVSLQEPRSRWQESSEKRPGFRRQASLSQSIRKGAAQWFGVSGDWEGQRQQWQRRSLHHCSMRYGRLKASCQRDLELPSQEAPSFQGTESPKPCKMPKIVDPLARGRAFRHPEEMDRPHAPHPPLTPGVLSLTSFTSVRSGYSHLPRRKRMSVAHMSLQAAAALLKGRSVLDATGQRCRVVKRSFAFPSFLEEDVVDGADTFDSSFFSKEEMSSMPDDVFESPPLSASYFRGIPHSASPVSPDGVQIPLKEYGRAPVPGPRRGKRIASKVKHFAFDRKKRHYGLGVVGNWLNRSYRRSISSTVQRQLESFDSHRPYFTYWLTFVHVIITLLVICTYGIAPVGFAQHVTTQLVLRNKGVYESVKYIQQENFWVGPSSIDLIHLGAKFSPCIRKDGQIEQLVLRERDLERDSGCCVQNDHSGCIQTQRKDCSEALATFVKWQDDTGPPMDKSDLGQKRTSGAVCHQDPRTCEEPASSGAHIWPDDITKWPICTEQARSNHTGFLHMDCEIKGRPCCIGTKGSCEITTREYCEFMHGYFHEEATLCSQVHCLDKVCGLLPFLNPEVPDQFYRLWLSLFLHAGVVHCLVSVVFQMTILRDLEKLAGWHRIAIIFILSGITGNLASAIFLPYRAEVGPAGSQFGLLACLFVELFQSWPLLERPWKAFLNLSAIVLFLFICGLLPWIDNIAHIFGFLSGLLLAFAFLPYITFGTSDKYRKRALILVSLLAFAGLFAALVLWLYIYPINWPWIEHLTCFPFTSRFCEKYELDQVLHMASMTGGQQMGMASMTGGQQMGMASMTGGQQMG
Method in brief: (§1)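 Two incubations on ice, each 1 hour: test antibody (3 μg/ml) or FACS buffer only, then PE anti-mouse F(ab′)2 at 1:100 in the dark. Centrifugation and washes used 4° C; staining quantified on a flow cytometer.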

hiR2-FL-D592A-T7 = biological target: T2, hiR2-FL-D592A-T7 (human, UniProt Q6PJF5 1-856); experiment: as above
T2 sequence: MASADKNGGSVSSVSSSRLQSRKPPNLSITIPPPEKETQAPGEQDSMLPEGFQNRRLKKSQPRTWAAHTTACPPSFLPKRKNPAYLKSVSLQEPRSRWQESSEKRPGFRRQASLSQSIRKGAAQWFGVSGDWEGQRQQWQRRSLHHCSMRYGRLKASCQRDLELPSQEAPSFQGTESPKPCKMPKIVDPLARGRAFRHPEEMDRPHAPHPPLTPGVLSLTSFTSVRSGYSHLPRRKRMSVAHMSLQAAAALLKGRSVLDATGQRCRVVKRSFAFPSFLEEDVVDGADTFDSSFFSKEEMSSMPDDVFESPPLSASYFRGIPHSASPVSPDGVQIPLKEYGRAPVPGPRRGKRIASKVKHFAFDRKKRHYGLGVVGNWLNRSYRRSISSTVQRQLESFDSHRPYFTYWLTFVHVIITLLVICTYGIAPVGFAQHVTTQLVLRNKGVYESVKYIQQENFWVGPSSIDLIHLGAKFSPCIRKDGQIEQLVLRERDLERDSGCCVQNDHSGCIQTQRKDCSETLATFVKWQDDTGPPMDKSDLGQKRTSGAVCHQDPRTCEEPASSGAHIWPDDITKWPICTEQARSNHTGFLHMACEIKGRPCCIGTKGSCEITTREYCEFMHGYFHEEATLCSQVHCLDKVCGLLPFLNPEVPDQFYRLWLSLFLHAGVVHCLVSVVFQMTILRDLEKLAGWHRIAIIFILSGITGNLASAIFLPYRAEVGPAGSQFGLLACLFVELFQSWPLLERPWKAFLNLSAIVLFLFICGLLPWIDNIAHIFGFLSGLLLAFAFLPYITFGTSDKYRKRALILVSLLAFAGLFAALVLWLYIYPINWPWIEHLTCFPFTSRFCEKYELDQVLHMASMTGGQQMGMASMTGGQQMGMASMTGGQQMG
Method in brief: as §1

B1: antibody 48 (antibody, V domains shown)
VH: QVQLQQSGTELVRPGTSVKVSCKASGYAFTNYLIEWVKQRPGQGLEWIGVINPGSGFTKYNEKFKGKATLTADKSSSTVYMHLSSLTSEDSAVYFCARGLYRAMDYWGQGTSVTVSS
VL: DIQMTQSPASQSASLGESVTITCLASQTIATWLAWYQQKPGKSPQLLIYGATTLADGVPSRFSGGGSGTKFSFKISSLQAEDFVSYYCQQLYSTPYTFGGGTKLEIK
notes: mouse IgG, kappa light chain; also called clone #48; purified antibody 48
In the case of B1, the “loss of binding vs wild type” value (hiR2-FL-T519A-T7) is reported as ≥ 60% and the “loss of binding vs wild type” value (hiR2-FL-D592A-T7) is reported as ≥ 60%.

B2: antibody 50 (antibody, V domains shown)
VH: QVQLQQSGAELVRPGASVKVSCKASGYAFSNYLIEWVKQRPGQGLEWIGVINPGSGFTKYNEKFKGKATLTADKSSSTAYMQLSSLTSEDSAVYFCARGLYRAMDYWGQGTSVTVSS
VL: DIQMTQSPASQSASLGESVTITCLASQTIGTWLAWYQQKPGKSPQLLIYAAASLADGVPSRFSGGGSGTKFSFKISSLQAEDFVNYYCQQIYSTPYTFGGGTKLEIK
notes: mouse IgG, kappa light chain; also called clone #50; purified antibody 50
For B2, the “loss of binding vs wild type” value (hiR2-FL-T519A-T7) was ≥ 60% and the “loss of binding vs wild type” value (hiR2-FL-D592A-T7) was ≥ 60%.
